Measured values taken from article PMC6304933.

Biological target: Thermosynechococcus elongatus BP-1 Fed2 (Thermosynechococcus elongatus BP-1)
Experiment: SDS/PAGE

Thermosynechococcus elongatus BP-1 Fed2 (natural protein)
stoichiometry N: 2
